Laboratory results: article PMC4863159
Where “and” joins values, the source holds several entries; their conditions need not be identical. Equal entries are not always repeated. Blank lines part the entries; values can stand above or below the substance they belong to.

Experiments:
[1] = target: right-handed coiled-coil domain (RHCC) from Staphylothermus marinus, lacking CRDs (Staphylothermus marinus); assay: SDS-PAGE at low SDS concentration; purified RHCC on SDS-PAGE with a low SDS concentration to preserve the tetrameric coiled-coil; monomer lane beside it
[2] = target: N-CRD-RHCC-N-CRD fusion protein (not stated | Staphylothermus marinus); assay: cross-linking; disulfide-linked oligomers of purified, oxidized CRD-RHCC fusion proteins in non-reducing SDS-PAGE; samples heat-denatured; control: reduced and treated with 60 mM iodoacetamide (IAA)
[3] = target: N-CRD-RHCC-N-CRD fusion protein (not stated | Staphylothermus marinus); assay: cross-linking; spontaneous disulfide cross-linking of CRD-RHCC fusion proteins over time; loss of the dimer band into polymers on anti-His Western blot, samples every 30 minutes for 4 hours, single exponential decay fit (y = e^-x/tau)
[4] = target: C-CRD-RHCC-C-CRD fusion protein (not stated | Staphylothermus marinus); assay: as above
[5] = target: C-CRD-RHCC-C-CRD fusion protein (not stated | Staphylothermus marinus); assay: cross-linking; disulfide-linked oligomers of purified, oxidized CRD-RHCC fusion proteins in non-reducing SDS-PAGE; samples heat-denatured; control: reduced and treated with 60 mM iodoacetamide (IAA)
[6] = target: C9A/C18A C-CRD mutant (CRD-RHCC fusion protein); assay: western blot densitometry of the dimer band over time (spontaneous disulfide cross-linking); conditions: no reducing agent added, read off a plot

stoichiometry N [1]: 4
Substance: right-handed coiled-coil domain (RHCC) from Staphylothermus marinus, lacking CRDs (domain or fragment)

stoichiometry N [2]: 2
τ (decay of the dimer band into polymers) [3]: 340 min
τ (decay of the dimer band into polymers) [4]: 251 min
Substance: N-CRD-RHCC-N-CRD fusion protein

stoichiometry N [5]: 3 and 2
τ (decay of the dimer band into polymers) [4]: 88 min
Substance: C-CRD-RHCC-C-CRD fusion protein

other: dimer loss (normalized) ([6]; t = 30 min, parent: est. 0.82): 1
other: dimer loss (normalized) ([6]; t = 60 min, parent: est. 0.38): 0.91
other: dimer loss (normalized) ([6]; t = 90 min, parent: est. 0.29): 0.92
other: dimer loss (normalized) ([6]; t = 120 min, parent: est. 0.23): 0.98
other: dimer loss (normalized) ([6]; t = 180 min, parent: est. 0.23): 1
other: dimer loss (normalized) ([6]; t = 240 min, parent: est. 0.22): 1
Substance: C-CRD-RHCC-C-CRD fusion protein C9A; C18A
